From a protein production outcome set (Wang et al. 2014) come the findings set out here.
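Also: failed if final PepcDB status was selected cloned or expressed and not failed if soluble or beyond.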

The data set is described as follows: label from the status in PepcDB records.
For “MARIIVKNGYLKGGSEKTSAHLNNLVKYIATRDGVEKIKNGRELWHATKKQQTLIGEILREFPDAKEMFEYEDYLANPNRENASEFITIALEQHLDKIGDREKYLDYIANRPRVEKFESHGLFTAGDAPLVLSQVAEEVAAHTGNVWTPIISLRREDAARLDYDNAAAWKALLSSKAMELAENLKIHPDHLKWYGAFHNESHHPHIHMVCYSTDPREGYLTKQGIRKMKSSLANEIFRQELIPLYGEKTQRRDELKEQSAESLRELIRQIKGGVLVSERMEQLLTHLAERLQTVSGKKQYGYLKPELKNVVDEIVDDLAQDSRVSEAYRMWWETKGRIESIYTETPSEPPPLSHCDDFKPIRNMVIQEALLIGNMTFEEPASVETALPEPENDLEMSLSDIEDEEDQEPIDDSVGRPSSDEASAGKESSDSWWTEEYRQAKQYLCGDEDAGVPQDFRKAHELFMAEADKNNPLALYDLGRMSADGLGCEADADAAYGWYEKALVVLHAAEEAKPWKYTEYRIGKMYAAGLGAEQDYLQASDWLTLSADKKYKYAQYSLGGLYYHGKGVEQDHVTAFALYTRSADQSFPYASFELGKMLRDGIGCAKNQQDSDRRFKEAFLGFVSLEEQSHDDKLQYRLGWMLLNGIGTDKDEARAKEYFEKAASVGNPFACYQLAKFILSDEKAQPQDVEKALGYLRKAVEAENPYAAYFLGKLYEKGQHVPQNTAEAMRLYTLSAEQDNEFAAYRLGKLYLDGDGVLKDVESAIRWLTFAADRKNQFAEYALGVLYFKGEDIPKDVPKALEYLKRSAGQGNQFAQYRLGKIYLMGEDVPKDIQTALQFLTAAAEQGNQYAQYTLGKLYLIGKDVPKDKETAVRWFTLSAAQGNIYAQFFLDHIDNFKDPSVLLAGTRLLHHMSRIFADNAPPLKLPGQRTDRKLLRKLREKKQAQGHARDDHEQTMSL”, the protein production result is “failed”. For “MLGHNKISVIIPAYNEERRIGNVLKGIPDFVDEVIVVDDGSSDGTSKVAMELGATVIRLNKNSGKGAAMREGLKISTGDIIVFMDADGQHNPKEIYRLVKPIVEGRADLVIGRRIITRGKRPMSRKISNFITTRLITLKTRKKILDTQSGFRAIRREFVPVIESDRYEVETEVLIKAIKKGARILEVPISTRYDVETGHFKMIDIFRFLFALIKYLEHHHHHH”, the protein production entry was “failed”. Take “MKKILVIRNDKIGDFMVCFPAFAMLKQSMPNAEITALVPSYTASLAELCPSIDNVIIDTPNKKDKTEFNRVLQAVKNAQFDAVICFVSDWYNAKLTWKSGIKHRLAPATKVFQFLYNQRLEHHHHHH”: the protein production entry is on record as “failed”. With “MSSFFSVLLVLGGLIFFHELGHYLAARVLGIGVHTFSLGFGPRIFGWRSGQTDYRLSLIPLGGYVSLAGESDDEIPEGFTKGQMFSARPAWHRLIVIAAGPVFNLLLAWFIYWGLTFVHGQFIVLPEVGKVLEGGPAAAAGVQSGDRIVAIDGVSIERWDQVSDAIAASKGAPVTLSLTRNEGQHELRIVPEHRTRKTIFGDEEDAFLIGIQASGATMTLPQTPVEAAVTGARQTWTMIAMTGKGVVKLFERVVPLDTVGGPIMIAQMVSREAKDSGITGVLALAALISINLGLLNLLPIPVLDGGHIIFLGLEMLFRRPVPQKVQEVTTRMGLVLLLGLMFLATYNDIVRIGQ”, the protein production result is on record as “failed”. The value for “MARAKNVLWIMCDQLRYDYLGCTGHPTLKTPNIDAMAKRGVLFSKAYVQSPICGPSRMSFYTGRYMRSHGSHWNGWPLRVGEPTLGDHLKKIGVRNVLVGKTHMAPDLEGMKALGIPPESMIGVHVAECGFEPYERDDGLHPTGRPRPKYDEYLRKQGFEATNPWEHWANSGAAEDGSLQNGWLLVHADKAARVPEEHSETPYMTRRAMDFISEAETDGKPWCLHLSYIKPHWPYIAPEPYASMYSTDDMIPVIRSERERQNPHPVFGAYMDMRYSRNMARDDAREKVIPTYMGLITQIDDQMGALMKFLEERGLLDTTMIVFTSDHGDYLGDHWMGEKDLFHEQSAKIPLIIIDPSREADATRGTRSDALVEGIDLAPTFVDYFGGKVPGHILEGRSLLPLLRGPTPPDWRKVAFSEYDYAMQDVRLKLNQPIERCRLFMVFDGRWKYIHASGFRPMLYDLETDPEEFLDRGDDPDCAGIIARLQAELFDWALHPNDHITTPREKIAAYADNQLQVKGGVLIGIWDEAELAAIKDGIAQRAKL” was “failed”; that for “MWRDTMSAFLGELIGTALLIVLGGGVCAGVSLKKSFAKDSGWIVITMGWGLAVAVAAYAVGSISGAHLNPALTIGLAFKGAFPWSDVPGYIVAQMIGAIIGAVIVYLHYLPHWKETEDPGTKLGVFATGPAIPNTFANLLSEMIGTFVLVFGILAIGANKFADGLNPFIVGFLIVSIGLSLGGTTGYAINPARDLGPRIAHFFLPIAGKGGSNWKYAWIPVVGPILGGSLAGLFHQVVFEGKQNSALIYVIIATVIVLAISYMTSKKSGSNTNSRKVA” was “failed”; that for “PIEGEKVDLRIMSTTDLHTNLVNYDYYQDKESQKIGLAKTAVLIEEAKKENPNTVLVDNGDVIQGTPLGTYKAIVKPVAENEEHPMYQAMNALGYDASTLGNHEFNYGLDYLKKIIATANLPILNANVLDFKTHQPVFKTYDIITKTFKDSTGRAVALNIGITGIVPPQILNWDKANLEGKVIVKDSVKAIEEIVPTMRAKGADVILVLSHSGIGDDRYEEGEENVGYQIASIKGVDAVVTGHSHAEFPSGNGTGFYEKYTGVDGINGKINGTPVTMAGKYGDHLGIIDLGLSYTNGKWQVSESSAKIRKIDMNSTTADERIIALAKEAHDGTINYVRQ” was “not failed”.

Consider “MEVKQGLTLFARKQDMKSVWEITGSNIDLVCIGNFCRSLKDLSSRGGTDASTNTCMLPWQYSLQKPLLGVSYLNSDGSSQSTPHGSNGLVKRGATYIVSDDLTICVKKKFDVNLDDIFEHEINIGKTHSLIRDIHCLDYGFRELSFRETTLKHQSHALCGAD”, for which the protein production result was “failed”. As to “MFSLSTQTMSAVAQRHPQTPISTITASNRQSSLHFKINSNNPEAHAQMRSGDEKGAIASITIEFQSVEQLHLHLGIMHLLSGDMKGAIEDFNQAILINPNYAEAYKGRGVAKVQLGDEKEAIEDLQKAADIFQEQEETAKYQEVINIIRQINDK”, the protein production result is “failed”. Next, “MGHHHHHHSHMYRYFTPKIVKRALNIWPPFWGAGISIENISSDFQEVSVILKDRFWNRNANRTQYGGSIFSMTDPVFSLMLMGILRDEYYVWDKQSEIDFISPGTTDLHARFVISDEQLAEIKQETKEGEKHFPQFEVYIYDKKGKVVARVNRTLYVRKKPEFR”: “not failed”; “MQATTATPHDIVFLFDCDNTLLDNDHVLADLRAHMMREFGAQNSARYWEIFETLRTELGYADYLGALQRYRLEQPRDTRLLLMSSFLIDYPFASRVYPGALNALRHLGARGPTVILSDGDVVFQPRKIARSGLWDEVEGRVLIYIHKELMLDQVMECYPARHYVMVDDKLRILAAMKKAWGARLTTVFPRQGHYAFDPKEISSHPPADVTVERIGDLVEMDAEWLLAEKR”: “not failed”; “MIIVMSRRAAEADIAGVVAFIRSRGLREHISHGDERTVIGAIGDDRVLSVREVQTLPEVEKAVRILDTWKTVSRENRAEDSRVAAKGVAFGGGETVRIAAEPSVWSNADAVFLDPFFTSANLYDTLSADEGRGRCRRLAEQAASAHGAGKPVLVRVRNVRHVEAALNAGADILYLGGGLMSDLAVLNEAGSLNIPLVLCKDKHHSAEDWLNAAEYVVSRGNRHLILGESGVLGHTKGHPYRLDVESIVKVRQISHLPVIANITGLWSRDMPQEILYGLAKAAGACGIVGTCFEKAGG”: “failed”. For “MQRTAVLPYVQLLKPITWFAPMWAFGCGLISSGLPVWDRWPVIALGVLLCGPLVCGTSQAVNDWFDRHVDAINEPDRPIPSGRIPGRVGLYIAIGWTVLSLAVAWVLGPWVFGAAIFGLALAWAYSAPPFRLKGNGWWGNSAVGLCYEGLPWFTGAAVIAGALPDTRIVLLAVLYSIGAHGIMTLNDFKAVEGDIRMGVRSLPVQLGVAPAARLACAVMAVPQMVVIGLVASWDRPYHAGAVGLLLLAQFVLMARLLKRPRELAPWYNATGTTLYVIGMMVSAFALAPLIGAVELAPLIGAAP”, the protein production result is given as “failed”. “SSLICSISNEVPEHPCVSPVSNHVYERRLIEKYIAENGTDPINNQPLSEEQLIDIKVAHPIRPKPPSATSIPAILKALQDEWDAVMLHSFTLRQQLQTTRQELSHALYQHDAACRVIARLTKEVTAAREALATLKPQAGLIVPQAVPSSQPSVVGAGEPMDLGELVGMTPEIIQKLQDKATVLTTERKKRGKTVPEELVKPEELSKYRQVASHVGLHSASIPGILALDLCPSDTNKILTGGADKNVVVFDKSSEQILATLKGHTKKVTSVVFHPSQDLVFSASPDATIRIWSVPNASCVQVVRAHESAVTGLSLHATGDYLLSSSDDQYWAFSDIQTGRVLTKVTDETSGCSLTCAQFHPDGLIFGTGTMDSQIKIWDLKERTNVANFPGHSGPITSIAFSENGYYLATAADDSSVKLWDLRKLKNFKTLQLDNNFEVKSLIFDQSGTYLALGGTDVQIYICKQWTEILHFTEHSGLTTGVAFGHHAKFIASTGMDRSLKFYSL”: the protein production result is “not failed”.

As to “MRMQQDVQDVKLIAVLNLLNQLSNKNSLEEYLNGVIDFLSGWTGCENIGIRVLREAGLAPYVVHRGFDKDFIASESCISVEGDECVCLRVLKQQFKSEDQDHISAAGTYYAPNFYRYVEELREDQLLNFRGLCAHKQFKSLAVIPLLHQGKVVGAIHIADIKDGVFSEEDIHFIETIRPLVAEAIYRHNLEKALESTVLRYEAEEMVIRKLKFEERLASISARFNQQEDFKAAAEESLKDILKLFKAEEVCLYLGGNLKEYVSVREHGQQACGCVIPSDTFAELRGRWKQGEILCQKPALQDEFKEIEYFAQEVFSKDSILTIPLNFKGSLLGVLIIVNISSGGLPFKEILNPLKLVTETFANAVEQGRIQYQLMWSENRYRTIFNHSGSAFLIVDENLKILLSNPQAERLLDLPSAKIDNIAYLTDFLPDTEVGRLKEYNRRRLQRDPQIPRQYEMKYKDSRGNLKDVIVSAEVIPQTTQTVLSIIDITEWKKTEAELQFLNLHDRLTGLYNRVYFEQELRRYETDPGQEVGLIMADVNGLKLINTTFGSEAGDQVLVTTARLLNECFEEHLVARIGGDEFAVLIEKDKNVDLEQACQLFRRNVEKYNKDHDGYPLDISLGYACSGAGGVNMSELLRKADDAMGREKLHSNNSTRNSQVQILSKALECRDFITEGHAERVQNLIISTGQLAGLSEQRLSDLKLFAQFHDIGKVGIPDQILFKKGRLTADEWEIMKQHCEIGYRIAQSTPDIYPIADWILKHHENWDGSGYPLGIAGEEIPIECRILAVADTFDAMTNDRPYRKAQSTQAAIEEILRCAGTQFDPHIVELFVKTV”, the protein production entry is “failed”. Next, “SPGSAAKGSELSERIESFVETLKRGGGPRSSEEMARETLGLLRQIITDHRWSNAGELMELIRREGRRMTAAQPSETTVGNMVRRVLKIIREEYGRLHGRTDESDQQESLHKLLTSGGLNEDFSFHYAQLQSNIIEAINELLVELEGTMENIAAQALEHIHSNEVIMTIGFSRTVEAFLKEAARKRKFHVIVAECAPFCQGHEMAVNLSKAGIETTVMTDAAIFAVMSRVNKVIIGTKTILANGALRAVTGTHTLALAAKHHSTPLIVCAPMFKLSPQFPNEEDSFHKFVAPEEVLPFTEGDILEKVSVHCPVFDYVPPELITLFISNIGGNAPSYIYRLMSELYHPDDHVL”: “failed”; “MNVKKNIALPAIMVGTFILEGVISLQFGNGLFNDKHLFIPHFLLVMLTIMTCFYKRNTTLVYAFILGLLFDIYYTGVMGIYFAIFPFTVYITDKFMKVLQNNIFLVGLITVFNIILTESLVYAFYYLIGSTTMTIPVFIDQRLWTTILFNLAFFLVIFFPFRLFLDRLVKSE”: “failed”; “MASLSELAVFIAVAEQGSFVGAGRVLGVSASAVGKRISRLEVDLGVRLLQRNTRSLALTAEGETVLSRGRSLLDEAESLRVVLERSSRQPGGVLRLSLPPIGGVLMAELAAFRQRYPEVALELDYSERNVDIIEEGFDAAIRVGAGDDGKLRSLALPGFRRLIVAAPDYLVRHGQPRSAAQLAEHQLIHYRSPNSGKLEAWPLVNAELPRALVCNSVHARLDFALQGQGIACLPDISIRRELEDGSLRPLLGSENGEKVVLRLLWPSSRGLSARMEAFLGFMRERSGAAPCENFKVRA”: “failed”.
